From patent US12195506B2, “Immunotherapy with A*01 restricted peptides and combination of peptides against cancers and related methods” (Immatics Biotechnologies GmbH, priority 2018, dated 2025)

Assays:
CD8+ T cells = assay: In vitro T-cell priming assay with artificial antigen presenting cells loaded with peptide/MHC complexes and anti-CD28 antibody, pMHC multimer readout; assay type: cell-based, human; conditions: in vitro immunogenicity, peptide-specific multimer+ CD8+ T cells
Excerpt: In order to obtain information regarding the immunogenicity of the TUMAPs of the present invention, the inventors performed investigations using an in vitro T-cell priming assay based on repeated stimulations of CD8+ T cells with artificial antigen presenting cells (aAPCs) loaded with peptide/MHC complexes and anti-CD28 antibody.
In order to perform in vitro stimulations by artificial antigen presenting cells loaded with peptide-MHC complex (pMHC) and anti-CD28 antibody, the inventors first isolated CD8+ T cells from fresh HLA-A*02 leukapheresis products via positive selection using CD8 microbeads (Miltenyi Biotec, Bergisch-Gladbach, Germany) of healthy donors obtained from the University clinics Mannheim, Germany, after informed consent.
PBMCs and isolated CD8+ lymphocytes were incubated in T-cell medium (TCM) until use consisting of RPMI-Glutamax (Invitrogen, Karlsruhe, Germany) supplemented with 10% heat inactivated human AB serum (PAN-Biotech, Aidenbach, Germany), 100 U/ml Penicillin/100 μg/ml Streptomycin (Cambrex, Cologne, Germany), 1 mM sodium pyruvate (CC Pro, Oberdorla, Germany), 20 μg/ml Gentamycin (Cambrex). 2.5 ng/ml IL-7 (PromoCell, Heidelberg, Germany) and 10 U/ml IL-2 (Novartis Pharma, Nurnberg, Germany) were also added to the TCM at this step.
Generation of pMHC/anti-CD28 coated beads, T-cell stimulations and readout was performed in a highly defined in vitro system using four different pMHC molecules per stimulation condition and 8 different pMHC molecules per readout condition.
The purified co-stimulatory mouse IgG2a anti human CD28 Ab 9.3 (Jung et al., 1987) was chemically biotinylated using Sulfo-N-hydroxysuccinimidobiotin as recommended by the manufacturer (Perbio, Bonn, Germany). Beads used were 5.6 μm diameter streptavidin coated polystyrene particles (Bangs Laboratories, Illinois, USA).
pMHC used for positive and negative control stimulations were A*0201/MLA-001 (peptide […] (SEQ ID NO. 433) from modified Melan-A/MART-1) and A*0201/DDX5-001 ([…] from DDX5, SEQ ID NO. 434), respectively.
800.000 beads/200 μI were coated in 96-well plates in the presence of 4×12.5 ng different biotin-pMHC, washed and 600 ng biotin anti-CD28 were added subsequently in a volume of 200 μI. Stimulations were initiated in 96-well plates by co-incubating 1×10^6 CD8+ T cells with 2×10^5 washed coated beads in 200 μI TCM supplemented with 5 ng/ml IL-12 (PromoCell) for 3 days at 37° C. Half of the medium was then exchanged by fresh TCM supplemented with 80 U/ml IL-2 and incubating was continued for 4 days at 37° C. This stimulation cycle was performed for a total of three times. For the pMHC multimer readout using 8 different pMHC molecules per condition, a two-dimensional combinatorial coding approach was used as previously described (Andersen et al., 2012) with minor modifications encompassing coupling to 5 different fluorochromes. Finally, multimeric analyses were performed by staining the cells with Live/dead near IR dye (Invitrogen, Karlsruhe, Germany), CD8-FITC antibody clone SK1 (BD, Heidelberg, Germany) and fluorescent pMHC multimers. For analysis, a BD LSRII SORP cytometer equipped with appropriate lasers and filters was used. Peptide specific cells were calculated as percentage of total CD8+ cells. Evaluation of multimeric analysis was done using the FlowJo software (Tree Star, Oregon, USA). In vitro priming of specific multimer+CD8+ lymphocytes was detected by comparing to negative control stimulations.

HLA-A*01:01 = HLA-A*01:01 (Homo sapiens, UniProt P04439, A114D/A174V/A182V/D101N/D185E/E176A/E190D/L180R/Q94H/R68K/S129P/T187R/V100A/V91M/W191G); assay: MHC binding assay: UV-ligand exchange, ELISA of stabilized MHC complexes (peptide exchange yield); conditions: binding to HLA-A*01:01, UV-ligand exchange
Outline: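 Peptide–MHC complexes were formed by UV-induced exchange of a photocleavable ligand for the test peptide. Exchange yield was measured by streptavidin-capture ELISA of 100-fold diluted complexes, detected with HRP anti-β2m at A450. Refolded HLA-A*02:01/MLA-001 monomers at 15-500 ng/ml served as standards.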

10 (VSERTGISY; listed as Homo sapiens) [compound 10]
Wells positive [%] (CD8+ T cells; Table 10b): + (<20% = +)
Peptide exchange (HLA-A*01:01): +++ (>50 = +++)

11 (ASDHWRGRY; listed as Homo sapiens) [compound 11]
Wells positive [%] (CD8+ T cells; Table 10b): +++ (50%-69% = +++)
Peptide exchange (HLA-A*01:01): +++ (>50 = +++)

12 (YTDFVGEGLY; listed as Homo sapiens) [compound 12]
Wells positive [%] (CD8+ T cells; Table 10b): + (<20% = +)
Peptide exchange (HLA-A*01:01): +++ (>50 = +++)

18 (RSDPVSLRY; listed as Homo sapiens) [compound 18]
Wells positive [%] (CD8+ T cells; Table 10b): ++ (20%-49% = ++)
Peptide exchange (HLA-A*01:01): ++++ (>75% = ++++)

19 (LTEGHSGNY; listed as Homo sapiens) [compound 19]
Wells positive [%] (CD8+ T cells; Table 10b): + (<20% = +)
Peptide exchange (HLA-A*01:01): ++++ (>75% = ++++)

24 (NLDHYTNAY; listed as Homo sapiens) [compound 24]
Wells positive [%] (CD8+ T cells; Table 10b): + (<20% = +)
Peptide exchange (HLA-A*01:01): +++ (>50 = +++)

26 (ASDDFRSKY; listed as Homo sapiens) [compound 26]
Wells positive [%] (CD8+ T cells; Table 10b): ++ (20%-49% = ++)
Peptide exchange (HLA-A*01:01): +++ (>50 = +++)

27 (PSEVPVDSHY; listed as Homo sapiens) [compound 27]
Wells positive [%] (CD8+ T cells; Table 10b): + (<20% = +)
Peptide exchange (HLA-A*01:01): ++++ (>75% = ++++)

33 (SMDPVTGYQY; listed as Homo sapiens) [compound 33]
Wells positive [%] (CD8+ T cells; Table 10b): + (<20% = +)
Peptide exchange (HLA-A*01:01): +++ (>50 = +++)

37 (MTSTEQSLYY; listed as Homo sapiens) [compound 37]
Wells positive [%] (CD8+ T cells; Table 10b): + (<20% = +)
Peptide exchange (HLA-A*01:01): +++ (>50 = +++)

42 (ASDVDTLLK; listed as Homo sapiens) [compound 42]
Wells positive [%] (CD8+ T cells; Table 10b): + (<20% = +)
Peptide exchange (HLA-A*01:01): +++ (>50 = +++)

53 (YLEDRPLSQLY; listed as Homo sapiens) [compound 53]
Wells positive [%] (CD8+ T cells; Table 10b): + (<20% = +)
Peptide exchange (HLA-A*01:01): ++++ (>75% = ++++)

54 (EVDIHTIHY; listed as Homo sapiens) [compound 54]
Wells positive [%] (CD8+ T cells; Table 10b): + (<20% = +)
Peptide exchange (HLA-A*01:01): +++ (>50 = +++)

60 (MTEKFLFLY; listed as Homo sapiens) [compound 60]
Wells positive [%] (CD8+ T cells; Table 10b): + (<20% = +)
Peptide exchange (HLA-A*01:01): ++++ (>75% = ++++)

61 (SSDIVALGGFLY; listed as Homo sapiens) [compound 61]
Wells positive [%] (CD8+ T cells; Table 10b): ++ (20%-49% = ++)
Peptide exchange (HLA-A*01:01): +++ (>50 = +++)

64 (TSEISQNALMYY; listed as Homo sapiens) [compound 64]
Wells positive [%] (CD8+ T cells; Table 10b): + (<20% = +)
Peptide exchange (HLA-A*01:01): +++ (>50 = +++)

70 (YTELVEEKY; listed as Homo sapiens) [compound 70]
Wells positive [%] (CD8+ T cells; Table 10b): + (<20% = +)
Peptide exchange (HLA-A*01:01): +++ (>50 = +++)

71 (LTDSTTRTTY; listed as Homo sapiens) [compound 71]
Wells positive [%] (CD8+ T cells; Table 10b): + (<20% = +)
Peptide exchange (HLA-A*01:01): +++ (>50 = +++)

73 (STDSASYY; listed as Homo sapiens) [compound 73]
Wells positive [%] (CD8+ T cells; Table 10b): + (<20% = +)
Peptide exchange (HLA-A*01:01): ++++ (>75% = ++++)

382 (YEPATMEQY; listed as Homo sapiens) [compound 382]
Peptide exchange (HLA-A*01:01): ++ (>20% = ++)

383 (PPDHAVGRTKY; listed as Homo sapiens) [compound 383]
Peptide exchange (HLA-A*01:01): ++ (>20% = ++)

384 (RFRSITQSYY; listed as Homo sapiens) [compound 384]
Peptide exchange (HLA-A*01:01): + (>10% =+)

385 (SANALILTY; listed as Homo sapiens) [compound 385]
Peptide exchange (HLA-A*01:01): ++ (>20% = ++)

388 (YTAHVGYSMY; listed as Homo sapiens) [compound 388]
Peptide exchange (HLA-A*01:01): ++++ (>75% = ++++)

389 (YYDLVESTF; listed as Homo sapiens) [compound 389]
Peptide exchange (HLA-A*01:01): + (>10% =+)

390 (FSEPFHLIVSY; listed as Homo sapiens) [compound 390]
Peptide exchange (HLA-A*01:01): ++++ (>75% = ++++)

391 (GSNPARYEF; listed as Homo sapiens) [compound 391]
Peptide exchange (HLA-A*01:01): ++ (>20% = ++)

392 (TQHFVQENY; listed as Homo sapiens) [compound 392]
Peptide exchange (HLA-A*01:01): ++ (>20% = ++)

393 (QVWGGQPVY; listed as Homo sapiens) [compound 393]
Peptide exchange (HLA-A*01:01): + (>10% =+)

394 (QVPLDCVLY; listed as Homo sapiens) [compound 394]
Peptide exchange (HLA-A*01:01): ++ (>20% = ++)

395 (ILKGGSGTY; listed as Homo sapiens) [compound 395]
Peptide exchange (HLA-A*01:01): ++ (>20% = ++)

396 (LPDPNVQKY; listed as Homo sapiens) [compound 396]
Peptide exchange (HLA-A*01:01): ++ (>20% = ++)

397 (NSAINPLIY; listed as Homo sapiens) [compound 397]
Peptide exchange (HLA-A*01:01): ++++ (>75% = ++++)

398 (YYYDTHTNTY; listed as Homo sapiens) [compound 398]
Peptide exchange (HLA-A*01:01): + (>10% =+)

399 (YVGKEHMFY; listed as Homo sapiens) [compound 399]
Wells positive [%] (CD8+ T cells; Table 10a): + (<20% = +)

400 (NTDNNLAVY; listed as Homo sapiens) [compound 400]
Wells positive [%] (CD8+ T cells; Table 10a): + (<20% = +)

401 (VWSNVTPLKF; listed as Homo sapiens) [compound 401]
Wells positive [%] (CD8+ T cells; Table 10a): + (<20% = +)

403 (SADDIRGIQSLY; listed as Homo sapiens) [compound 403]
Wells positive [%] (CD8+ T cells; Table 10a): + (<20% = +)

404 (FVDNQYWRY; listed as Homo sapiens) [compound 404]
Wells positive [%] (CD8+ T cells; Table 10a): + (<20% = +)

408 (VWSDVTPLTF; listed as Homo sapiens) [compound 408]
Wells positive [%] (CD8+ T cells; Table 10a): + (<20% = +)

414 (LTEGHSGNYY; listed as Homo sapiens) [compound 414]
Wells positive [%] (CD8+ T cells; Table 10a): + (<20% = +)

415 (VWSDVTPLNF; listed as Homo sapiens) [compound 415]
Wells positive [%] (CD8+ T cells; Table 10a): + (<20% = +)

417 (KLDRSVFTAY; listed as Homo sapiens) [compound 417]
Wells positive [%] (CD8+ T cells; Table 10a): ++++ (>= 70% = ++++)

420 (VTDLEMPHY; listed as Homo sapiens) [compound 420]
Wells positive [%] (CD8+ T cells; Table 10a): + (<20% = +)

421 (RSDPGGGGLAY; listed as Homo sapiens) [compound 421]
Wells positive [%] (CD8+ T cells; Table 10a): + (<20% = +)

427 (LTDYINANY; listed as Homo sapiens) [compound 427]
Wells positive [%] (CD8+ T cells; Table 10a): + (<20% = +)

429 (VSDSECLSRY; listed as Homo sapiens) [compound 429]
Wells positive [%] (CD8+ T cells; Table 10a): ++ (20%-49% = ++)
